Consider one molecule from publication doi:10.1101/2025.07.14.664640 (bioRxiv, 2025).

The target in the assay is T1, MBP-HS1BP3 full length (UniProt Q53T59 1-392).
T1 sequence (looked up): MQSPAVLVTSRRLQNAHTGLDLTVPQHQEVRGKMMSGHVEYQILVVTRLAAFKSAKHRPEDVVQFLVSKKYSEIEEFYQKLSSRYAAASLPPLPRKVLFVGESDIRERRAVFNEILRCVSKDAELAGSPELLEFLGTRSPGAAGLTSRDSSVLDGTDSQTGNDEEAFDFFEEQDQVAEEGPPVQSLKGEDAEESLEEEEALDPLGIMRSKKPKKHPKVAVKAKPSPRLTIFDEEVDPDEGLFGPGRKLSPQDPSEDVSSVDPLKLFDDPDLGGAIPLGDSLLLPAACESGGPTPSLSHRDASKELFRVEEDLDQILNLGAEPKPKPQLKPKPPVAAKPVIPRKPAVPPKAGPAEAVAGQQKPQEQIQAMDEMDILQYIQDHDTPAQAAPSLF
Description: pull-down.

B1: GST-SH3 (SH3 domain of cortactin fused to GST) (domain or fragment)
chain: not shown
Take B1: the binding result is listed as “binds”.
